# In US20240049668A1 (VILMORIN AND CIE, published 2024):
# Positions count from the first letter of the chain named. Names may count otherwise. Read-outs that look alike come from different tables or passages of the source.
# T1: Movement Protein of ToBRFV (Tomato Brown Rugose Fruit Virus …, UniProt A0A0S2SZW1 1-266)
# T1 sequence: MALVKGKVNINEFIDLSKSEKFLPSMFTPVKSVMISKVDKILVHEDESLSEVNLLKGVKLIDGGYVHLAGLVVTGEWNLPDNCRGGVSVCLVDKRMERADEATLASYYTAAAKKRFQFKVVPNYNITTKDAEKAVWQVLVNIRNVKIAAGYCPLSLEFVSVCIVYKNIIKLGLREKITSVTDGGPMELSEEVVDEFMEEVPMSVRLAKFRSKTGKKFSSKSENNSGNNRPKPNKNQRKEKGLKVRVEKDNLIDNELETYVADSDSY
# B1: TM-2-2 variant pJL 466 (F655L) (receptor)
# chain: MAEILLTSVINKSVEIAGNLLIQEGKRLYWLKEDIDWLQREMRHIRSYVDNAKAKEAGGDSRVKNLLKDIQELAGDVEDLLDDFLPKIQQSNKFNYCLKRSSFADEFAMEIEKIKRRVVDIDRIRKTYNIIDTDNNNDDCVLLDRRRLFLHADETEIIGLDDDFNMLQAKLLNQDLHYGVVSIVGMPGLGKTTLAKKLYRLIRDQFECSGLVYVSQQPRASEILLDIAKQIGLTEQKMKENLEDNLRSLLKIKRYVILLDDIWDVEIWDDLKLVLPECDSKVGSRMIITSRNSNVGRYIGGESSLHALQPLESEKSFELFTKKIFNFDDNNSWANASPDLVNIGRNIVGRCGGIPLAIVVTAGMLRARERTEHAWNRVLESMGHKVQDGCAKVLALSYNDLPIASRPCFLYFGLYPEDHEIRAFDLINMWIAEKFIVVNSGNRREAEDLAEDVLNDLVSRNLIQLAKRTYNGRISSCRIHDLLHSLCVDLAKESNFFHTAHDAFGDPGNVARLRRITFYSDNVMIEFFRSNPKLEKLRVLFCFAKDPSIFSHMAYFDFKLLHTLVVVMSQSFQAYVTIPSKFGNMTCLRYLRLEGNICGKLPNSIVKLTRLETIDIDRRSLIQPPSGVWESKHLRHLCYRDYGQACNSCFSISSLYPNIYSLHPNNLQTLMWIPDKFFEPRLLHRLINLRKLGILGVSNSTVKMLSIFSPVLKALEVLKLSFSSDPSEQIKLSSYPHIAKLHLNVNRTMALNSQSFPPNLIKLTLAYFSVDRYILAVLKTFPKLRKLKMFICKYNEEKMDLSGEANGYSFPQLEVLHIHSPNGLSEVTCTDDVSMPKLKKLLLTGFHCRISLSERLKKLSK
# B2: TM-2-2 variant L11_11 (767 C) (receptor)
# chain: B1 chain with L655F, Y767C
# B3: TM-2-2 variant pJL 511_3 (767 Y, 769 A, 848 R) (receptor)
# chain: B1 chain with L655F, S769A, C848R
# B4: TM-2-2 variant pJL 480T (848 R, 857 T) (receptor)
# chain: B1 chain with L655F, C848R, K857T
# B5: TM-2-2 variant L12_A (769 A) (receptor)
# chain: B1 chain with L655F, S769A
# B6: TM-2-2 variant pJL 477_D (822 D, 848 R) (receptor)
# chain: B1 chain with L655F, N822D, C848R
# B7: TM-2-2 variant pJL 468_P (848 P) (receptor)
# chain: B1 chain with L655F, C848P
# B8: TM-2-2 variant L11_15 (767 L) (receptor)
# chain: B1 chain with L655F, Y767L
# B9: TM-2-2 variant pJL 468_S (848 S) (receptor)
# chain: B1 chain with L655F, C848S
# B10: TM-2-2 variant pJL 480I (848 R, 857 I) (receptor)
# chain: B1 chain with L655F, C848R, K857I
# B11: TM-2-2 variant pJL 468_K (848 K) (receptor)
# chain: B1 chain with L655F, C848K
# B12: TM-2-2 variant pJL 511_12 (767 D, 848 R) (receptor)
# chain: B1 chain with L655F, Y767D, C848R
# B13: TM-2-2 variant L11_20 (767 V) (receptor)
# chain: B1 chain with L655F, Y767V
# B14: TM-2-2 variant pJL 476_K (822 K, 848 R) (receptor)
# chain: B1 chain with L655F, N822K, C848R
# B15: TM-2-2 variant pJL 480R (848 R, 857 R) (receptor)
# chain: B1 chain with L655F, C848R, K857R
# B16: TM-2-2 variant pJL 468_L (848 L) (receptor)
# chain: B1 chain with L655F, C848L
# B17: TM-2-2 variant L11_19 (767 N) (receptor)
# chain: B1 chain with L655F, Y767N
# B18: TM-2-2 variant pJL 476_T (822 T, 848 R) (receptor)
# chain: B1 chain with L655F, N822T, C848R
# B19: TM-2-2 variant pJL 468_Q (848 Q) (receptor)
# chain: B1 chain with L655F, C848Q
# B20: TM-2-2 variant pJL 476_R (822 R, 848 R) (receptor)
# chain: B1 chain with L655F, N822R, C848R
# B21: TM-2-2 variant pJL 468_M (848 M) (receptor)
# chain: B1 chain with L655F, C848M
# B22: TM-2-2 variant pJL 468_N (848 N) (receptor)
# chain: B1 chain with L655F, C848N
# B23: TM-2-2 variant pJL 468_A (848 A) (receptor)
# chain: B1 chain with L655F, C848A
# B24: TM-2-2 variant L11_10 (767 I) (receptor)
# chain: B1 chain with L655F, Y767I
# B25: TM-2-2 variant pJL 477_H (822 H, 848 R) (receptor)
# chain: B1 chain with L655F, N822H, C848R
# B26: TM-2-2 variant pJL 476_S (822 S, 848 R) (receptor)
# chain: B1 chain with L655F, N822S, C848R
# B27: TM-2-2 variant L12_3 (769 V) (receptor)
# chain: B1 chain with L655F, S769V
# B28: TM-2-2 variant pJL 468_H (848 H) (receptor)
# chain: B1 chain with L655F, C848H
# B29: TM-2-2 variant pJL 511_5 (767 Y wt, 769 S wt, 848 R) (receptor)
# chain: B1 chain with L655F, C848R
# B30: TM-2-2 variant pJL 476_F (822 F, 848 R) (receptor)
# chain: B1 chain with L655F, N822F, C848R
# B31: TM-2-2 variant pJL 476_I (822 I, 848 R) (receptor)
# chain: B1 chain with L655F, N822I, C848R
# B32: TM-2-2 variant pJL 480Q (848 R, 857 Q) (receptor)
# chain: B1 chain with L655F, C848R, K857Q
# B33: TM-2-2 variant pJL 468_E (848 E) (receptor)
# chain: B1 chain with L655F, C848E
# B34: TM-2-2 variant L12_4 (769 F) (receptor)
# chain: B1 chain with L655F, S769F
# B35: TM-2-2 variant pJL 511_1 (767 S, 769 A, 848 R) (receptor)
# chain: B1 chain with L655F, Y767S, S769A, C848R
# B36: TM-2-2 variant pJL 511_8 (767 D, 769 A, 848 R) (receptor)
# chain: B1 chain with L655F, Y767D, S769A, C848R
# B37: TM-2-2 variant pJL 468_T (848 T) (receptor)
# chain: B1 chain with L655F, C848T
# B38: TM-2-2 variant L11_16 (767 G) (receptor)
# chain: B1 chain with L655F, Y767G
# B39: TM-2-2 variant L12_16 (769 E) (receptor)
# chain: B1 chain with L655F, S769E
# B40: TM-2-2 variant pJL 468_D (848 D) (receptor)
# chain: B1 chain with L655F, C848D
# B41: TM-2-2 variant pJL 480E (848 R, 857 E) (receptor)
# chain: B1 chain with L655F, C848R, K857E
# B42: TM-2-2 variant pJL 476_C (822 C, 848 R) (receptor)
# chain: B1 chain with L655F, N822C, C848R
# B43: TM-2-2 variant L11_1 (767 R) (receptor)
# chain: B1 chain with L655F, Y767R
# B44: TM-2-2 variant pJL 511_2 (767 S, 848 R) (receptor)
# chain: B1 chain with L655F, Y767S, C848R
# B45: TM-2-2 variant pJL 468_R (848 R) (receptor)
# chain: B1 chain with L655F, C848R
# B46: TM-2-2 variant L12_12 (769 R) (receptor)
# chain: B1 chain with L655F, S769R
# B47: TM-2-2 variant L12_11 (769 G) (receptor)
# chain: B1 chain with L655F, S769G
# Legend:
# Experiment in all cases: cell-based or functional assay
# [1] = target: T1, Movement Protein of ToBRFV
# [2] = target: T1, Movement Protein of ToBRFV; remark: listed apart in the source
# [3] = target: T1, Movement Protein of ToBRFV; remark: listed apart in the source
# [4] = target: T1, Movement Protein of ToBRFV; remark: listed apart in the source
# [5] = target: T1, Movement Protein of ToBRFV; remark: listed apart in the source
# [6] = target: T1, Movement Protein of ToBRFV; remark: listed apart in the source
# [7] = target: T1, Movement Protein of ToBRFV; remark: listed apart in the source
binder,measurement,setting,value
B1,HR when expressed with MP Rugose,[1],< 1 HR scale 0-4
B2,HR to MP Rugose,[2],0 HR scale 0-4
B3,HR to MP Rugose,[3],4 HR scale 0-4
B4,HR to MP Rugose,[4],< 1 HR scale 0-4
B5,HR to MP Rugose,[5],0 HR scale 0-4
B6,HR to MP Rugose,[6],< 1 HR scale 0-4
B7,HR when expressed with MP Rugose,[7],< 1 HR scale 0-4
B8,HR to MP Rugose,[2],0 HR scale 0-4
B9,HR when expressed with MP Rugose,[7],~1 HR scale 0-4
B10,HR to MP Rugose,[4],< 1 HR scale 0-4
B11,HR when expressed with MP Rugose,[7],~1 HR scale 0-4
B12,HR to MP Rugose,[3],0 HR scale 0-4
B13,HR to MP Rugose,[2],0 HR scale 0-4
B14,HR to MP Rugose,[6],0 HR scale 0-4
B15,HR to MP Rugose,[4],< 1 HR scale 0-4
B16,HR when expressed with MP Rugose,[7],< 1 HR scale 0-4
B17,HR to MP Rugose,[2],0 HR scale 0-4
B18,HR to MP Rugose,[6],< 1 HR scale 0-4
B19,HR when expressed with MP Rugose,[7],< 1 HR scale 0-4
B20,HR to MP Rugose,[6],0 HR scale 0-4
B21,HR when expressed with MP Rugose,[7],< 1 HR scale 0-4
B22,HR when expressed with MP Rugose,[7],< 1 HR scale 0-4
B23,HR when expressed with MP Rugose,[7],< 1 HR scale 0-4
B24,HR to MP Rugose,[2],0 HR scale 0-4
B25,HR to MP Rugose,[6],< 1 HR scale 0-4
B26,HR to MP Rugose,[6],4 HR scale 0-4
B27,HR to MP Rugose,[5],< 1 HR scale 0-4
B28,HR when expressed with MP Rugose,[7],< 1 HR scale 0-4
B29,HR to MP Rugose,[3],4 HR scale 0-4
B30,HR to MP Rugose,[6],2 HR scale 0-4
B31,HR to MP Rugose,[6],0 HR scale 0-4
B32,HR to MP Rugose,[4],3 HR scale 0-4
B33,HR when expressed with MP Rugose,[7],< 1 HR scale 0-4
B34,HR to MP Rugose,[5],< 1 HR scale 0-4
B35,HR to MP Rugose,[3],0 HR scale 0-4
B36,HR to MP Rugose,[3],0 HR scale 0-4
B37,HR when expressed with MP Rugose,[7],~1 HR scale 0-4
B38,HR to MP Rugose,[2],0 HR scale 0-4
B39,HR to MP Rugose,[5],< 1 HR scale 0-4
B40,HR when expressed with MP Rugose,[7],< 1 HR scale 0-4
B41,HR to MP Rugose,[4],< 1 HR scale 0-4
B42,HR to MP Rugose,[6],2 HR scale 0-4
B43,HR to MP Rugose,[2],< 1 HR scale 0-4
B44,HR to MP Rugose,[3],0 HR scale 0-4
B45,HR when expressed with MP Rugose,[7],4 HR scale 0-4
B46,HR to MP Rugose,[5],< 1 HR scale 0-4
B47,HR to MP Rugose,[5],< 1 HR scale 0-4
